# In paper PMC3788124, “Crystal Structure of the Human Short Coiled Coil Protein and Insights into SCOC-FEZ1 Complex Formation” (PLoS ONE, 2013):
# B1: Strep-tagged SCOC(78-159) E93V/K97L (domain or fragment, human)
# chain: MAMMNADMDAVDAENQVVLEELTRLINQVLELQHTLEDLSARVDAVKEENLKLKSENQVLGQYIENLMSASSVFQTTDTKSKRKLVPRGS
# notes: human SCOC, SwissProt entry Q9UIL1 isoform 1, residues 78-159, with E93V and K97L; linker between SCOC and the Strep-tag, as in the wild-type construct; Trimer by SEC-MALLS and native MS; also called trimeric SCOC mutant; double core mutant E93V/K97L; source: E. coli BL21 (DE3), purified (StrepTrap, Superdex 75); also co-expressed with FEZ1(227-290) in E. coli
# B2: Selenomethionine-labelled Strep-tagged L105M SCOC(78-159) (domain or fragment)
# chain: not shown
# modifications: selenomethionine-labelled
# notes: human SCOC, SwissProt entry Q9UIL1 isoform 1, residues 78-159, with L105M; linker between SCOC and the Strep-tag, as in the wild-type construct; Crystallised by in situ proteolysis with subtilisin (1:2000 w/w), so the chain in the crystal may be shorter; the final model comprises residues 86-147 and the Strep-tag is not visible in the electron density; also called L105M SCOC mutant; SCOC_(78-159) …
# B3: Strep-tagged SCOC(78-159) R117E (domain or fragment)
# chain: not shown
# notes: human SCOC, SwissProt entry Q9UIL1 isoform 1, residues 78-159, with R117E; linker between SCOC and the Strep-tag, as in the wild-type construct; also called R117E surface mutant; source: E. coli BL21 (DE3), purified (StrepTrap, Superdex 75); also co-expressed with FEZ1(227-290) in E. coli
# B4: C-terminal Strep-tagged SCOC(78-159), wild type (domain or fragment)
# chain: not shown
# notes: human short coiled coil protein (SCOC), SwissProt entry Q9UIL1 isoform 1, residues 78-159; underlined stretch of the printed construct; linker between SCOC and the Strep-tag in the printed construct; Dimer by SEC-MALLS and native MS; also called short coiled coil protein; Strep-SCOC(78-159); source: E. coli BL21 (DE3), purified (StrepTrap, Superdex 75); also co-expressed with FEZ1(227-290) in E. …
# B5: Strep-tagged SCOC(78-159) N125L/N132V (domain or fragment)
# chain: not shown
# notes: human SCOC, SwissProt entry Q9UIL1 isoform 1, residues 78-159, with N125L and N132V; linker between SCOC and the Strep-tag, as in the wild-type construct; Tetramer by SEC-MALLS and native MS; also called tetrameric core mutant; double core mutant N125L/N132V; source: E. coli BL21 (DE3), purified (StrepTrap, Superdex 75); also co-expressed with FEZ1(227-290) in E. coli
# B6: Strep-tagged SCOC(78-159) R99E (domain or fragment)
# chain: not shown
# notes: human SCOC, SwissProt entry Q9UIL1 isoform 1, residues 78-159, with R99E; linker between SCOC and the Strep-tag, as in the wild-type construct; also called R99E surface mutant; source: E. coli BL21 (DE3), purified (StrepTrap, Superdex 75); also co-expressed with FEZ1(227-290) in E. coli
# Experiments:
# [1] = biological target: the molecule itself; assay: SEC-MALLS; SCOC constructs alone; 500 µL of 1.5 mg/ml on Superdex 200 10/300 GL; three measurements for each protein
# [2] = biological target: the molecule itself; assay: crystal structure; selenomethionine-labelled L105M SCOC(78-159), 3 mg/ml, with subtilisin 1:2000 (w/w) for in situ proteolysis; hanging drops, 20 °C, 100 mM sodium acetate pH 4.6, 0.7 M 1,6-hexanediol, 10 mM CoCl2
Protein,stoichiometry N [1],binding result [2]
B1,3,–
B2,–,binds
B3,2,–
B4,2,–
B5,4,–
B6,2,–
